Experimental findings from publication PMC4797267, “The CSB chromatin remodeler and CTCF architectural protein cooperate in response to oxidative stress” are described below.

The target of this data set is T1, MBP-CTCF (zinc fingers 1-11) (UniProt P49711 269-579).
T1 sequence: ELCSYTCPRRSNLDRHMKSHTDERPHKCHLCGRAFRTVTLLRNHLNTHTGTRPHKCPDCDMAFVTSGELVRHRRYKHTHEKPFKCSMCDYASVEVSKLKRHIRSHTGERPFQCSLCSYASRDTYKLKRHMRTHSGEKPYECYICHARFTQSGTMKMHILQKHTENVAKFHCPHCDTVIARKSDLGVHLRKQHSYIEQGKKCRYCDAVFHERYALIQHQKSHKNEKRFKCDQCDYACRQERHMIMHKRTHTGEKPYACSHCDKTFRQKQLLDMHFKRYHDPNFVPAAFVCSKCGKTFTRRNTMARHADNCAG
Nature of the data set: EMSA; 100 uM ZnSO4, 6 mM Mg2+; no CSB; 30 mM HEPES pH 7.9, 60 mM NaCl, 6% glycerol, 6 mM MgCl2, 100 uM ZnSO4, 0.02% NP40, 30 C 10 min; 1 nM DNA; 5% native PAGE, 0.5x TBE. The following applies: protein: recombinant; tags: MBP; label: 32P (body label, PCR with 32P-dATP); blunt. (Mobility shift assays separate free from complexed probe on a gel.)

B1: 200 bp DNA fragment with CTCF-binding site (Fig. S4B) (dsDNA)
DNA 1: CACACCGAGTTCATCCCTTATGTGATGGACCCTCCACGAGGGGGCCCTGGAGAATCCCGGTGCCGAGGCTGCAGAATTGGTCGTAGACAGCTCTAGCACCGCTTAAACGCACGTACGCGCTGTCCCCCGCGTTTTAACCGCCAAGGGGATTACTCCCTAGTCTCCAGGCACGTGTCAGATATATACATCCTGT
DNA 2: ACAGGATGTATATATCTGACACGTGCCTGGAGACTAGGGAGTAATCCCCTTGGCGGTTAAAACGCGGGGGACAGCGCGTACGTGCGTTTAAGCGGTGCTAGAGCTGTCTACGACCAATTCTGCAGCCTCGGCACCGGGATTCTCCAGGGCCCCCTCGTGGAGGGTCCATCACATAAGGGATGAACTCGGTGTG
Turning to B1, the binding result is “binds”.
